Half effective concentration (EC50) of chemotaxis of BA/F3/huC5aR cells data for two substances are collected here from US20180223285A1.

In the experiment the target is human C5a receptor (human) (UniProt P21730). Nature of the experiment: cell-based or functional assay.
Sequence of human C5a receptor (human) (P21730 whole entry): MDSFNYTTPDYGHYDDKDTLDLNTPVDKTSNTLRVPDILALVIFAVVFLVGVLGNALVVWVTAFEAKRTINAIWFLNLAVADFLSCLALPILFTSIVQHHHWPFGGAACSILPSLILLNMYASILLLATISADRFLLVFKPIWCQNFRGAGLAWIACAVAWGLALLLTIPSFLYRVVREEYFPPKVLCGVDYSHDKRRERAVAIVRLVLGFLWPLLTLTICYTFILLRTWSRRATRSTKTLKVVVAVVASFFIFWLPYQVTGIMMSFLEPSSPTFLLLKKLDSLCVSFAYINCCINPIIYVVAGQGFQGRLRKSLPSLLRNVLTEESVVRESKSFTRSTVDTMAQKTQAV

The substance “mouse C5a (from UniProt P06684 679-755) (ligand)” registered a half effective concentration (EC50) of chemotaxis of BA/F3/huC5aR cells of 0.3 nM.

“recombinant human C5a (from UniProt P01031 678-751) (ligand)”: the half effective concentration (EC50) of chemotaxis of BA/F3/huC5aR cells is 0.1 nM.
